Experimental data published in PMC5565208.
Where two headings read alike, the source gives them in different places.

Tests used:
[1] = system: BifR (Burkholderia thailandensis E264); test: EMSA
[2] = system: BifR (Burkholderia thailandensis E264); test: EMSA; remark: listed apart in the source
[3] = biological target: BifR (biofilm regulator), MarR homologue from Burkholderia thailandensis E264 (Burkholderia thailandensis E264); test: cross-linking
[4] = biological target: BifR (biofilm regulator), MarR homologue from Burkholderia thailandensis E264 (Burkholderia thailandensis E264); test: SEC
[5] = biological target: BifR (biofilm regulator), MarR homologue from Burkholderia thailandensis E264 (Burkholderia thailandensis E264); test: SEC; remark: listed apart in the source

## 355 bp ecsC-emrB operator DNA
[1]
  Kd: 0.9 nM
[2]
  Kd: 1.4 nM

## BifR (biofilm regulator), MarR homologue from Burkholderia thailandensis E264 (natural protein)
[3]
  stoichiometry N: 2
[4]
  stoichiometry N: 2
[5]
  stoichiometry N: 4
